Values belong to the molecule of their own block, whether it stands above or below them. Ends that are not written are not given here. * marks the point of attachment. Myristoyl = CCCCCCCCCCCCCC(=O)*
How the values were obtained:
Experiment in all cases: SPR
myrUSH3 D10R = biological target: myrUSH3 D10R
myrUSH3 K5A = biological target: myrUSH3 K5A
myrUSH3 K7A = biological target: myrUSH3 K7A
[1] = biological target: myristoylated Src N-terminal Regulatory Element (SNRE) of c-Src, wild type
SPR = biological target: the molecule itself

Molecule: myrUSH3 K5A (domain or fragment)
reduction of dimer formation relative to WT (myrUSH3 K5A): 50% | reduction of the dimer population relative to WT at the same protein density (myrUSH3 K5A): 50%

Molecule: myrUSH3 K7A (domain or fragment)
reduction of dimer formation relative to WT (myrUSH3 K7A): 50% | reduction of the dimer population relative to WT at the same protein density (myrUSH3 K7A): 40%

Molecule: Myristoyl-GSNRSRPRDASQRRR (peptide, UniProt P12931 2-16, looked up) [myrSH4 R5R7R9 (triple arginine)]
binding result (SPR): binds

Molecule: Myristoyl-GSNKSKPKDASQRRR (peptide, UniProt P12931-1 2-16, looked up) [myristoylated synthetic peptide with residues 2-16 of c-Src (entire SH4 domain), wild type]
binding result (SPR): binds

Other lines, results leading:

fold increase of dimerization relative to WT (myrUSH3 D10R): 6 fold
Molecule: myrUSH3 D10R (domain or fragment)

stoichiometry N [1]: 2
Molecule: myristoylated Src N-terminal Regulatory Element (SNRE) of c-Src, wild type (domain or fragment)
